Data on 34 molecules can be found in patent US20180251563A1 (SUBDOMAIN, published 2018).

Sequences and labels used below:
T1: CD123 (target of Example 19) (Homo sapiens (Human), UniProt P26951 19-305, limits assumed)
T1 sequence: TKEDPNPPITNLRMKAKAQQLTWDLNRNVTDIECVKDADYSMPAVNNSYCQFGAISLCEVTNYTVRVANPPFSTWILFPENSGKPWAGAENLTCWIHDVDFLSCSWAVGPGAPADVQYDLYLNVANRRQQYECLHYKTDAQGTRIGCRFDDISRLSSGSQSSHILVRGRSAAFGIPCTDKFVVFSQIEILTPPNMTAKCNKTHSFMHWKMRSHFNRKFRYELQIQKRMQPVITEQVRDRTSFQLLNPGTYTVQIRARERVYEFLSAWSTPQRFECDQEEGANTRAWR

B1: SEQ ID NO 26 (designed binder)
chain: MGSWNYFKDHLAWIKNSLEALGGSEAELAHFETAIASFERQLQEYKGKGNPEVEALRKEAAAIRDELQAYRHN
B2: SEQ ID NO 27 (designed binder)
chain: B1 chain with N5L, D9E, W13H, N16A, S17W, T33L, S37D, R40Y, Q41H
B3: SEQ ID NO 29 (designed binder)
chain: B1 chain with N5F, D9Q, N16S, S17Y, T33R, S37A, R40Q, Q41H, E44M
B4: SEQ ID NO 31 (designed binder)
chain: B1 chain with N5H, D9G, W13E, S17H, T33R, S37A, Q41S, E44W
B5: SEQ ID NO 30 (designed binder)
chain: B1 chain with N5H, W13E, N16G, S17L, T33M, S37D, R40H, Q41N, E44Y
B6: SEQ ID NO 33 (designed binder)
chain: MGSWTYFKEHLAEIKYMLEALGGSEAELAHFEVAIADFEKMLQYYKGKGNPEVEALRKEAAAIRDELQAYRHN
B7: SEQ ID NO 34 (designed binder)
chain: B6 chain with T5W, Y6L, E9D, Y16T, M17A, V33M, D37A, M41Q
B8: SEQ ID NO 28 (designed binder)
chain: B6 chain with T5V, E13W, Y16T, M17E, V33H, A34S, K40M, M41S, Y44F
B9: SEQ ID NO 32 (designed binder)
chain: B6 chain with T5I, E13Y, Y16K, M17E, V33S, D37V, K40S, M41T
B10: SEQ ID NO 109 (designed binder)
chain: MGSWNEFYDRLSAIYFRLQALGGSEAELAAFEKEIAAFESELQAYKGKGNPEVEHLRWYAADIRMILQAYRHN
B11: SEQ ID NO 116 (designed binder)
chain: B10 chain with N5V, S12H, Q19L, H55D, M65L, I66V
B12: SEQ ID NO 117 (designed binder)
chain: B10 chain with N5Y, D9N, F16A, H55D, M65Y, I66M
B13: SEQ ID NO 110 (designed binder)
chain: MGSWYEFEYRLEAIEDRLWALGGSEAELAAFEKEIAAFESELQAYKGKGNPEVEYLREEAAWIRVWLQAYRHN
B14: SEQ ID NO 113 (designed binder)
chain: B13 chain with Y5F, E8W, Y9D, E12D, W19Y, Y55E, E58D, V65G, W66T
B15: SEQ ID NO 118 (designed binder)
chain: B13 chain with Y5F, E8W, Y9G, D16S, W19K, Y55E, E59H, V65A, W66Y
B16: SEQ ID NO 108 (designed binder)
chain: B13 chain with Y9N, E12G, E15G, Y55W, E58D, W62Y, V65A, W66V
B17: SEQ ID NO 107 (designed binder)
chain: B13 chain with Y5I, Y9S, E12W, W19L, Y55F, E58L, W62D, V65E, W66D
B18: SEQ ID NO 120 (designed binder)
chain: B13 chain with Y9N, D16E, Y55M, W62F, V65D
B19: SEQ ID NO 112 (designed binder)
chain: B13 chain with E8W, Y9D, E15D, Y55A, E58Q, V65E, W66E
B20: SEQ ID NO 111 (designed binder)
chain: B13 chain with Y5V, Y9N, D16N, Y55W, E59D, W62Q, V65M, W66M
B21: SEQ ID NO 104 (designed binder)
chain: B13 chain with Y5T, E8H, Y9D, E15D, W62Q, V65W, W66E
B22: SEQ ID NO 115 (designed binder)
chain: B13 chain with Y5W, Y9M, W19F, Y55S, E58W, W62F, V65D, W66I
B23: SEQ ID NO 122 (designed binder)
chain: B13 chain with Y5I, Y9D, W19F, Y55W, E58Q, W62E, V65L, W66M
B24: SEQ ID NO 63 (designed binder)
chain: MGSWYEFEERLDAIEDRLIALGGSEAELAIFEDIIAFFEQDLQYYKGKGNPEVEALEMEAEAISIELDAYRHN
B25: SEQ ID NO 106 (designed binder)
chain: MGSWHEFDQRLWAIEERLWALGGSEAELAAFEKEIAAFESELQAYKGKGNPEVETLRLYAALIRHDLQAYRHN
B26: SEQ ID NO 119 (designed binder)
chain: MGSWTEFSIRLEAIYDRLVALGGSEAELAAFEKEIAAFESELQAYKGKGNPEVEVLRTYAANIRHELQAYRHN
B27: SEQ ID NO 121 (designed binder)
chain: B26 chain with T5Y, S8V, Y15E, V19W, T58W, N62D
B28: SEQ ID NO 126 (designed binder)
chain: B26 chain with T5H, S8G, I9V, E12D, V19M, V55F, T58Q, Y59A, H65S
B29: SEQ ID NO 127 (designed binder)
chain: B26 chain with T5Y, I9M, E12D, V19M, V55Q, T58G, H65N
B30: SEQ ID NO 60 (designed binder)
chain: MGSWIEFEDRLDAITDRLWALGGSEAELAEFEHQIAFFEEDLQWYKGKGNPEVEALHMEAEAIMEELGAYRHN
B31: SEQ ID NO 64 (designed binder)
chain: MGSWWEFEDRLWAIDRRLMALGGSEAELAVFEQMIAHFEQILQVYKGKGNPEVEALHFEAHAIGMELAAYRHN
B32: SEQ ID NO 61 (designed binder)
chain: MGSWVEFEYRLDAISDRLWALGGSEAELAFFENEIASFESDLQFYKGKGNPEVEALMFEAEAIDDELHAYRHN
B33: SEQ ID NO 65 (designed binder)
chain: MGSWEEFHERLDAIDERLEALGGSEAELAFFEDDIASFEDWLQWYKGKGNPEVEALSREADAINFELEAYRHN
B34: SEQ ID NO 62 (designed binder)
chain: MGSWYEFEDRLAAIEARLWALGGSEAELADFEEEIAYFEHGLQWYKGKGNPEVEALESEAMAIIDELHAYRHN

Residue numbers refer to the chain shown, from its start.

T2 sequence (O14763 56-182 limits assumed): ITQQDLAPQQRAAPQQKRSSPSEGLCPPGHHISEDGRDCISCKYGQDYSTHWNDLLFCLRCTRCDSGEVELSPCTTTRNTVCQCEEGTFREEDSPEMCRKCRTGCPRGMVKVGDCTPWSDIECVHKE

The first assay addresses T2, DR5-Fc (UniProt O14763 56-182, limits assumed).
T2 construct: purified recombinant target-Fc protein; not shown: Fc
The experiment in a line: phage ELISA, target-Fc against non-specific control. The procedure: Selections were also performed using F1, F2, F3, C1 & C2 trinucleotide phosphoramidite libraries. In most cases, libraries were pooled prior to use in selection. By combining equal volumes of the individual libraries, Pool F (libraries F1, F2 and F3) and Pool C (libraries C1 and C2) were generated. These libraries were used in selections for DBDpp binders to 4-1BB/CD137 as well as a larger panel of purified recombinant “target”-Fc proteins, including CD47, CTLA4, DR5, KIR, LAG3, OX40, PD1, PD-L1 and TIM3. (Many of these targets are considered immuno-regulatory factors (Pardoll et al., Nat. Rev. Cancer 12:252-264 (2012)). After incubation of the target with the pools of DBDpp phage libraries, bound phage-target complexes were captured and separated from unbound phage with protein A beads (target proteins were Fc fusions). After three rounds of selection, rescued phage clones were screened by ELISA for binding to the selected target.
For each target, approximately 90 DBDpp phage clones were screened by ELISA for binding to the target protein and as well as a non-specific control (e.g., IgG1-Fc). […] In some instances, for the ELISA screening plate in which the majority of DBDpp clones were positive, the entire plate was sequenced.
Background: An ELISA detects its analyte on a solid surface through an enzyme-linked reagent.
For B1, the “ELISA ratio (target to background)” value turned out to be 13 ratio.
The same measure, in the same setting: the figure for B2 is 12.3 ratio; for B3 it is 11.8 ratio; for B4 it is 10.8 ratio.
Same read-out and setting: the figure for B5 is 11.4 ratio; for B6 it is 10.3 ratio.
On the same count and under the same terms, the figure for B7 is 9.75 ratio; for B8 it is 12.1 ratio; for B9 it is 10.7 ratio.

A further assay deals with T1, CD123 (target of Example 19). Put plainly: library selection; assay not described.
With B10, the binding result is “binds”.
The same measure, in the same setting: the entry for B11 is “binds”; for B12 it is “binds”; for B13 it is “binds”.
On the same count and under the same terms, then B14, with “binds”; and B15, with “binds”.
On the same count and under the same terms, the entry for B16 is “binds”; for B17 it is “binds”.
For the molecule B18, the binding result is “binds”.
On to B19, for which the binding result was “binds”.
Same read-out and setting: then B20, with “binds”; and B21, with “binds”.
On the same count and under the same terms, then B22, with “binds”; and B23, with “binds”.
On the same count and under the same terms, the entry for B24 is “binds”.
In the case of B25, the binding result is given as “binds”.
Same read-out and setting: then B26, with “binds”; and B27, with “binds”; and B28, with “binds”.
Still for that read-out and setting: the entry for B29 is “binds”; for B30 it is “binds”; for B31 it is “binds”.
The same measure, in the same setting: the entry for B32 is “binds”; for B33 it is “binds”.
As to B34, the binding result is recorded as “binds”.
